Assay: yeast display, Sf9 membrane polyspecificity reagent, FACS + sequencing; frameworks hold sequencing errors
Procedure, shortened: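 Galactose induction of a Saccharomyces cerevisiae BJ5465 synthetic nanobody display library ran 36–48 hours. The cells were then stained for 1 hour at 4 °C with 10% biotinylated, detergent-solubilized Sf9 membrane reagent, pulled down on streptavidin microbeads and FACS-sorted into low and high (top ~1%) gates on expression and reagent-binding fluorescence. Labels for polyreactivity follow the gate of origin.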
For “QVQLVESGGGLVQAGGSLRLSCAASGSIFGQNAMGWYRQAPGKERELVAAITSGAGITYYADSVKGRFTISRDNAKNTVYLQMNSLKPEDPAVYYCNAVPSWSPSPLFDYWGQGTQVTVSS”, the “polyreactivity (PSR sort gate)” value was “low polyreactivity”.
With “QVQLVESGGGLVQAGGSLRLSCAASGSIFGQYAMGWYRQAPGKERELVAAISTRGGSTRYADSVKGRFTISRDNAKNTVYLQMNSLKPEDTAVYYCAARVPYIRHLAVDYWGQGTQVTVSS” the “polyreactivity (PSR sort gate)” value was “high polyreactivity”.
In the case of “QVQLVESGGGLVQAGGSLRLSCAASGSIFGRNAMGWYREAPGKERVLVAAINSGGSTNYADSVKGRFTISRDNAKNTVYLQMNSLKPEDTAVYYCAARTYSSGRYYGYVAFYYWGQGTQVTVSS”, the “polyreactivity (PSR sort gate)” value is reported as “high polyreactivity”.
For “QVQLVESGGGLVQAGGSLRLSCAASGSIFGRNAMGWYRQAPGKERELGAAMTGSGTSTYADSVKGRFTISRDNAKNTVYLQMNSLKPEDTAVYYCAAGVTTVEYEYCGQGTQVTVSS”, the “polyreactivity (PSR sort gate)” value was “low polyreactivity”.
For “QVQLVESGGGLVQAGGSLRLSCAASGSIFGRNAMGWYRQAPGKERELVAAISFIGGSTYYADSVKGRFTISRDNAKNTVYLQMNSLKPEDTAVYYCATSVFYYGSLYGYWGQGTQVTVSS”, the “polyreactivity (PSR sort gate)” value was “high polyreactivity”.
In the case of “QVQLVESGGGLVQAGGSLRLSCAASGSIFGRNAMGWYRQAPGKERELVARISSRGGSTYYADSVKGRFTISRDNAKNTVYLQMNSLKPEDTAVYYCNRDRTWQTNDYWGQGTQVTVSS”, the “polyreactivity (PSR sort gate)” value is reported as “high polyreactivity”.
With “QVQLVESGGGLVQAGGSLRLSCAASGSIFGRNDMGWYRQAPGKERELVARITRGGSTNYADSVKGRFTISRDNAKNTVYLQMNSLKPEDTAVYYCAKEFKYWGYPYDYWGQGTQVTVSS” the “polyreactivity (PSR sort gate)” value was “low polyreactivity”.
For “QVQLVESGGGLVQAGGSLRLSCAASGSIFGRYAMGWYRQAPGKERELVAAISYSGGSTYYADSVKGRFTISRDNAKNTVYLQMKSLKPEDTAFYYCAAEPSYYTRWFDGHYYYWGQGSQVTVSS”, the “polyreactivity (PSR sort gate)” value was “high polyreactivity”.
With “QVQLVESGGGLVQAGGSLRLSCAASGSIFGRYAMGWYRQAPGKERELVATITFRDTSTYYADSVKGRFTISRDTAKYTVLLLMNSLKPEDTAVYYCAAVRADLWDIARYDYWGQGTQETVSS” the “polyreactivity (PSR sort gate)” value was “low polyreactivity”.
In the case of “QVQLVESGGGLVQAGGSLRLSCAASGSIFGRYAMGWYRQAPGKESELVAAISANGGSTYYADSVKGRFTISRDNAKNTVYLQMNSLKPEDTAVYYCAAGSTRGYKLGYWGQGTQVTVSS”, the “polyreactivity (PSR sort gate)” value is reported as “high polyreactivity”.
In the case of “QVQLVESGGGLVQAGGSLRLSCAASGSIFGRYGAMGWSRQSPGKERELVAAIRTSGVSTYYADSVKGRFTISRDNAKNTVYLQMNSLKPEDTAVYYCAARAGRYRWTRFDYWGQGTQVTVSS”, the “polyreactivity (PSR sort gate)” value is reported as “low polyreactivity”.
For “QVQLVESGGGLVQAGGSLRLSCAASGSIFGRYGMVCYRQAPGKERQLVAAITSGTGTNYADSVKGRFTISRDNALNTVYLQMNSLKPEDTAVYYCNALRLRGNYEYGYWGQGTQVTLSS”, the “polyreactivity (PSR sort gate)” value was “low polyreactivity”.
With “QVQLVESGGGLVQAGGSLRLSCAASGSIFGRYTMGWYRQAPGKERELVAAISSSGGRTYYADSVKGRFTISRDNAKNTVYLQMNSLKPEDTAVYYCNKGYGYEYYWGQGTQVTVSS” the “polyreactivity (PSR sort gate)” value was “low polyreactivity”.
In the case of “QVQLVESGGGLVQAGGSLRLSCAASGSIFGRYTMGWYRQAPGKERELVAAISWGGGSTYYADSVKGRFTISRDNAKNSVYLQMNSLKPEDTAVYYCAADTYWAIDPIYDYWGQGTQVTVSS”, the “polyreactivity (PSR sort gate)” value is reported as “low polyreactivity”.
For “QVQLVESGGGLVQAGGSLRLSCAASGSIFGSNAMGWYRQAPGKERELVAAISSRAGRTYYADSVKGRFTISRDNAKNTVYLQMNSLKPEDTAVYYCAALYWVYRNRWLYDYWGLGTQVTVSS”, the “polyreactivity (PSR sort gate)” value was “high polyreactivity”.
In the case of “QVQLVESGGGLVQAGGSLRLSCAASGSIFGSNTMGWYRQAPGKEREFVAAISFSGGSTYDADSVKGRFTISRDNAKNTVYLQMNSLKPEDTAVYYCAARQRRVGTSFYSSRRDYWGQGTQVTVSS”, the “polyreactivity (PSR sort gate)” value is reported as “high polyreactivity”.
In the case of “QVQLVESGGGLVQAGGSLRLSCAASGSIFGSYAMGWYRQAPGKERELVAAITSAGSTNYADSVKGRFTISRDNAKNTVYLQMNSLKPEDTAVYYCAVRPGFGRSLWYGYWGQGTQVTVSS”, the “polyreactivity (PSR sort gate)” value is reported as “low polyreactivity”.
For “QVQLVESGGGLVQAGGSLRLSCAASGSIFGSYAMGWYRQAPGKERELVAAITSGGSTYADSVKGPFTISRDNPNKTVYLQMNSQKPDDTAVYYSNAKFYHSTSTLVQSEYDYWGQGTQVSVSS”, the “polyreactivity (PSR sort gate)” value was “low polyreactivity”.
With “QVQLVESGGGLVQAGGSLRLSCAASGSIFGSYTMGWYRQAPGKEREFVAAINFSGGRTYYADSVKGRFTISRDNAKNTVYLQMNSLKPEDTAVYYCARRWRQARYDYWGQGTQVTVSS” the “polyreactivity (PSR sort gate)” value was “high polyreactivity”.
In the case of “QVQLVESGGGLVQAGGSLRLSCAASGSIFGTNAMGRYRPAPGKERELVAAISWSGTSTYYADSVKGRFTISRDNAKNTVYLQMNSLKPEDTAVYYCAKRSGYSRGFYYWGQGTQVTVSS”, the “polyreactivity (PSR sort gate)” value is reported as “high polyreactivity”.
For “QVQLVESGGGLVQAGGSLRLSCAASGSIFGTNAMGWYRQAPGKEREMVAAISLSTGSTYYADSVKGRFTISRDKAKNTVYLQMNSLKPEDTAVYSCAAYYVTPIYYYLGQGTQVTVSS”, the “polyreactivity (PSR sort gate)” value was “low polyreactivity”.
In the case of “QVQLVESGGGLVQAGGSLRLSCAASGSIFGTNTMGWYRQAAGKERVLVAAIRLSDSSTYYADSVKGRFTISRDNAKKTVYLQMNSLKPGDTAVYYCAVDYRAYHYYRYDYWGQGTQVTVSS”, the “polyreactivity (PSR sort gate)” value is reported as “low polyreactivity”.
In the case of “QVQLVESGGGLVQAGGSLRLSCAASGSIFGTNTMGWYRQAPGKERELVAAISGGGSTYYADSVKGRFTISRDNAKNTVYLQMNSLKPEDTAVYYCAVRSLRVDKYGYWGQGTQVTVSS”, the “polyreactivity (PSR sort gate)” value is reported as “high polyreactivity”.
With “QVQLVESGGGLVQAGGSLRLSCAASGSIFGTYAMGWYRQAPGKERELVARITRGVSTNYADSVQGRFTISRDNAKNTVYLQMNSLKPEDTAVYYCAAESGNRYEYWGQGTQVTVSS” the “polyreactivity (PSR sort gate)” value was “low polyreactivity”.
With “QVQLVESGGGLVQAGGSLRLSCAASGSIFGVNAMGWYRQAPGKERELVAAISVSGGRTYYADSVKGRFTISRDNAKNTVYLLMNSLKPEDTAVYYCAATTYIWPYDYWGQGTQVTVSS” the “polyreactivity (PSR sort gate)” value was “low polyreactivity”.
For “QVQLVESGGGLVQAGGSLRLSCAASGSIFGVNAMGWYRQAPGKERELVAGITTGGSTKYADSVKGRFTISRDNAKNTVYLQMNSLKPEDTAVYYCAATGKWYHFYHYGYWGQGTQVTVSS”, the “polyreactivity (PSR sort gate)” value was “low polyreactivity”.
For “QVQLVESGGGLVQAGGSLRLSCAASGSIFGVNAMGWYRQTPGKERELVARINWSSGRTYYADSVKGRFTISRDNAKNTVYLQMNSLKQEDTAVYYCAAAYWRPGVRFFGPYDYWGQGTQVTVSS”, the “polyreactivity (PSR sort gate)” value was “high polyreactivity”.
For “QVQLVESGGGLVQAGGSLRLSCAASGSIFGVYAMGWYRQAPGKERELVARISSGGGSTYYADSVKGRFTISRDNAKNTVYLQMNSLKPEDTAVYYCATRYYGYYPVNYWGQGTQVTVSS”, the “polyreactivity (PSR sort gate)” value was “high polyreactivity”.
In the case of “QVQLVESGGGLVQAGGSLRLSCAASGSIFGVYAMRWYRQAPGKERELVATISRSGAITYYADSVKGRFTISRDNAKNTVYLQMNSLKPEDTAVYYCAADFFSRDWGQGTQVTVSS”, the “polyreactivity (PSR sort gate)” value is reported as “low polyreactivity”.
In the case of “QVQLVESGGGLVQAGGSLRLSCAASGSIFGVYTLGWYRQAPGKERELVAAISGSGGSTSYADSVKGRFTISRDNAKNTVYLQMTSLKPEDTAGYYCATRFPNIPPYDSLGQGTQVTVSS”, the “polyreactivity (PSR sort gate)” value is reported as “low polyreactivity”.
With “QVQLVESGGGLVQAGGSLRLSCAASGSIFGVYTMGWYRQAPGKERELVAAIRGVGSTNYADSVKGRFTISRDNAKNTVYLQMNSLKPEDTAVYYCASRYAYGMWGQGTQVTVSS” the “polyreactivity (PSR sort gate)” value was “low polyreactivity”.
For “QVQLVESGGGLVQAGGSLRLSCAASGSIFGVYTMGWYRQAPWKERELVAAISRNGGSTYYEDSVKGRFTISRDNAKNNVYLQMNSLKPEDTAVYYCATSTSRRYGSRHNYWGQGTQVTVSS”, the “polyreactivity (PSR sort gate)” value was “high polyreactivity”.
For “QVQLVESGGGLVQAGGSLRLSCAASGSIFGWYAMGWYRQAPGKERELVAAITFSSVSTYYADSVKGRFTISRDNAKNTVYLQMNSLKPEDTAVYYCAAVVYYTFDYWGQGTQVTVSS”, the “polyreactivity (PSR sort gate)” value was “low polyreactivity”.
In the case of “QVQLVESGGGLVQAGGSLRLSCAASGSIFGWYAMGWYRQAPGTERELVAAIRRGGSTNYADSVKGRFTISRDNAKNTVYLQMNSLKPEDTAVYYCAAGKSGYSKRIFRYSFDYWGQGTQVTVSS”, the “polyreactivity (PSR sort gate)” value is reported as “high polyreactivity”.
For “QVQLVESGGGLVQAGGSLRLSCAASGSIFGYAMGWYRQAPGKERELVAAISFSGVSTYYADSVKGRFTISRDNAKNTVYLQMNSLKPEDTAVYYCNAYSDGDEDYWGQGTQVTVSS”, the “polyreactivity (PSR sort gate)” value was “low polyreactivity”.
With “QVQLVESGGGLVQAGGSLRLSCAASGSIFGYNAMGWSRQAPGKERELVAAITGSGGSTYYADSVKGRFTISRDNAKNTVYLLMNILKPEDTAVYYCADDLVGGPLGYWDYDYWGQGTQVTVSS” the “polyreactivity (PSR sort gate)” value was “low polyreactivity”.
In the case of “QVQLVESGGGLVQAGGSLRLSCAASGSIFGYNAMGWYRQAPGKERELVAAISNDGDNTYYADSVKGRFTISRDNAKNTVYLQMNSLKPEDTAVYYCATEYPLTYAYYYYDGGDYWGQGTQVTVSS”, the “polyreactivity (PSR sort gate)” value is reported as “low polyreactivity”.
For “QVQLVESGGGLVQAGGSLRLSCAASGSIFGYNTMGWYRQAPGKERELVATITRGGSTHYADSVKGRFTISRDNAKNTVYLQMNSLKPEDTAVYYCAATRLSYVRLYRFSQQYYYWGQGTQVTVSS”, the “polyreactivity (PSR sort gate)” value was “high polyreactivity”.
With “QVQLVESGGGLVQAGGSLRLSCAASGSIFGYNVMGWYRQAPGKERELVAGITSGGSTNYADSVKGRFTISRDNAKNTVYLQMNSLKPEDTAVYYCNAEGVFGDGRSGFYWYDYWGQGTQVTVSS” the “polyreactivity (PSR sort gate)” value was “low polyreactivity”.
In the case of “QVQLVESGGGLVQAGGSLRLSCAASGSIFGYTTMGWYRQGPGKERELVAAINWSDGHTNYADSVKGRFTISRDNANNTVYLQLNSLKPEDTAVYYCAADWYRSSWTYNYWGQGSQVTVSS”, the “polyreactivity (PSR sort gate)” value is reported as “low polyreactivity”.
For “QVQLVESGGGLVQAGGSLRLSCAASGSIFGYYAMGWYRQAPGKEREFVAAISSRKDSTYADSVKGRFTISRDNAKNTVYLQMNSLKPEDTAVYYCAASTFRLTYAGHSYDYWGQGTQVTVSS”, the “polyreactivity (PSR sort gate)” value was “high polyreactivity”.

Source: the nanobody polyreactivity screen of Harvey et al. (2022)
